Target: T1, mPD1 (on CHO-mPD1 cells) (mouse (printed as mPD1), UniProt Q02242 25-288)
T1 construct: whole, on cells; Target of the antibody terminus in the FACS assay
T1 sequence (looked up): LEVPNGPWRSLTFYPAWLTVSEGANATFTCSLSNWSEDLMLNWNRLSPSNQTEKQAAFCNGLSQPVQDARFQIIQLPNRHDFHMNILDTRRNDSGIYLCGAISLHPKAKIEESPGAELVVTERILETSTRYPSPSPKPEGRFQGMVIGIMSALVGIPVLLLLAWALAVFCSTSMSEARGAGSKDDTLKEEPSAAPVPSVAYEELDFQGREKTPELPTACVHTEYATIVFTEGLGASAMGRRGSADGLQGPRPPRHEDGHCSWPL
Experiment: flow cytometry (FACS) on CHO-mPD1 cells, PE secondary antibody, 3-fold dilutions from 400 nM
Experimental: CHO-mPD1 or CHO-hIL-10R cells were centrifuged at 250 g for 5 min, a supernatant was discarded, the cell density was adjusted to 2E+06 by a PBS buffer with 3% BSA, and it was evenly divided into a 96-well V-shaped plate according to 100 μl/tube; the fusion protein molecules diluted above were added to cells, and incubated at 100 μL/well and 2-8° C. for 0.5 h; the 96-well plate was taken out, and centrifuged at 250 g for 5 min, and a supernatant was removed carefully; the PBS buffer with 3% BSA was used to prepare a PE fluorescent secondary antibody (1:500 dilution), it was added to the corresponding 96-well plate according to the volume of 100 μL/well, and the cells were resuspended, and incubated at 2-8° C. for 30 min; the 96-well plate was taken out, and centrifuged at 250 g for 5 min, a supernatant was removed carefully, the PBS buffer with 3% BSA was added at 200 μL/well, and it was centrifuged again at 250 g for 5 min, and a supernatant was removed carefully; and it was resuspended with 1×PBS according to the volume of 100 μL/well, and FACS detection was performed after the resuspension.

B1: R0989 (other)
heavy: QVQLKESGPGLVQPSQTLSLTCTVSGFSLTSYNVHWVRQPPGKGLEWMGGMRYNEDTSYNSALKSRLSISRDTSKNQVFLKMNSLQTDDTGTYYCTRDAVYGGYGGWFAYWGQGTLVTVSSASTKGPSVFPLAPSSKSTSGGTAALGCLVKDYFPEPVTVSWNSGALTSGVHTFPAVLQSSGLYSLSSVVTVPSSSLGTQTYICNVNHKPSNTKVDKRVEPKSCDKTHTCPPCPAPEAAGGPSVFLFPPKPKDTLMISRTPEVTCVVVDVSHEDPEVKFNWYVDGVEVHNAKTKPREEQYNSTYRVVSVLTVLHQDWLNGKEYKCKVSNKALPAPIEKTISKAKGSGSGSGSGQGTQSENSCTHFPGNLPNMLRDLRDAFSRVKTFFQMKDQLDNLLLKESLLEDFKGYLGCQALSEMIQFYLEEVMPQAENQDPDIKAHVNSLGENLKTLRLRLRRCHRFLPCENGGGSGGKSKAVEQVKNAFNKLQEKGIYKAMSEFDIFINYIEAYMTMKIRNGSGSGSGSGQPREPQVYTLPPSREEMTKNQVSLTCLVKGFYPSDIAVEWESNGQPENNYKTTPPVLDSDGSFFLYSKLTVDKSRWQQGNVFSCSVMHEALHNHYTQKSLSLSPGK
light: DTVLTQSPALAVSLGQRVTISCKASETVSSSMYSYIHWYQQKPGQQPKLLIYRASNLESGVPARFSGSGSGTDFTLTIDPVEADDVATYFCQQSWNPWTFGGGTKLELKRTVAAPSVFIFPPSDEQLKSGTASVVCLLNNFYPREAKVQWKVDNALQSGNSQESVTEQDSKDSTYSLSSTLTLSKADYEKHKVYACEVTHQGLSSPVTKSFNRGEC
notes: Anti-PD-1 antibody with the modified IL-10 monomer inserted between CH2 and CH3 through linker2; also called IL-10 monomer fusion protein, IL-10 monomer between CH2 and CH3 of the heavy chain (Position 3)
  binding result: binds

— US20250032583A1 (GUANGDONG FAPON BIOPHARMA, published 2025)
